Results as given in doi:10.1101/2025.09.24.678203 (bioRxiv, 2025).

T1: T. brucei canonical histone H2A (T. brucei brucei, UniProt Q57YA3 2-134)
T1 construct: Canonical histone H2A of Trypanosoma brucei brucei, Tb927.7.2820, pET21a plasmid from the Janzen lab; also called Tb H2A
T1 sequence: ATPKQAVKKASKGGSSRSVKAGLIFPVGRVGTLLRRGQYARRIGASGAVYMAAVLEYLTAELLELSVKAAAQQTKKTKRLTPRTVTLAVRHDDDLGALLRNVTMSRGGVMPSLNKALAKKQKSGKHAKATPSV

B1: T. brucei canonical histone H4 (natural protein)
chain: not shown
notes: Canonical histone H4 of Trypanosoma brucei brucei, Tb927.5.4170, pET21a plasmid from the Janzen lab; also called Tb H4
B2: T. brucei canonical histone H2B (natural protein, T. brucei brucei)
chain: ATPKSTPAKTRKEAKKTRRQRKRTWNVYVSRSLRSINSQMSMTSRTMKIVNSFVNDLFERIAAEAATIVRVNRKRTLGARELQTAVRLVLPADLAKHAMAEGTKAVSHASS
notes: Canonical histone H2B of Trypanosoma brucei brucei, Tb927.10.10480, pET21a plasmid from the Janzen lab; also called Tb H2B

Columns and labels:
[1] = target: T2, T. brucei canonical histone H3 (T. brucei brucei, UniProt Q4GYX7 2-133); assay: in vitro reconstitution of histone octamers and nucleosomes (SEC, native PAGE, SDS-PAGE); purified histones combined at a 1.2:1.2:1:1 H2A:H2B:H3(V):H4(V) molar ratio, dialysed into 2 M NaCl Octamer Buffer, octamers purified on Superdex200; wrapped with Widom 601 145 bp, Widom 603 177 bp or Widom 603 193 bp DNA by salt gradient dialysis; checked by native and SDS PAGE; settings: both partners purified
T2 construct: Canonical histone H3 of Trypanosoma brucei brucei, Tb927.1.2430, pET21a plasmid from the Janzen lab; also called Tb H3

[2] = target: T1, T. brucei canonical histone H2A; assay: cryo-EM structure; H3.V-H4.V NCP (H2A, H2B, H3.V, H4.V) wrapped with Widom 601 145 bp DNA, crosslinked with 0.05% glutaraldehyde, separated by SEC; grids in 10 mM Tris pH 8.0, 30 mM NaCl, 1 mM EDTA, 1 mM DTT; global resolution 3.2 Å; settings: both partners purified

Binder | binding result [1] | binding result [2]
B1 | binds | –
B2 | – | binds
